Key:
Assay in all cases: Steady-state kinetics of 2-ketoacid decarboxylase (ADH/NADH coupled)
Conditions in all cases: other: pH 7.5, 21° C.
[1] = substrate: CC(=O)C(=O)O; assay type: biochemical
Source text: (§1) FIG. 17: Depicts protein sequences of various 2-ketoacid decarboxylases (SEQ ID NOS:20-34). Protein Sequence 3FZN is SEQ ID NO: 20. Protein sequence 2VBI is SEQ ID NO: 21. Protein sequence 1ZPD is SEQ ID NO: 22. Protein sequence ZP_08570611 is SEQ ID NO: 23. Protein sequence YP_831380 is SEQ ID NO: 24. Protein sequence ZP_06547677 is SEQ ID NO: 25. Protein sequence 1OVM_P23234 is SEQ ID NO: 26. Protein sequence ZP_06418208 is SEQ ID NO: 27. Protein sequence ZP_07290467 is SEQ ID NO: 28. Protein sequence 2VBG is SEQ ID NO: 29. Protein sequence CAK95977 is SEQ ID NO: 30. Protein sequence ZP_07282849 is SEQ ID NO: 31. Protein sequence ZP_06846103 is SEQ ID NO: 32. Protein sequence ZP_04996569 is SEQ ID NO: 33. Protein sequence YP_381143 is SEQ ID NO: 34.
(§2) To evaluate if the integrative genomic mining approach enriches the mining for C8 activity, an additional set of previously characterized ketoacid decarboxylases diverse in sequence were experimentally characterized in an equivalent manner. […] The median C8 activity from the GEOs selected using the integrative genomic mining approach is 75-fold higher than the naively picked decarboxylases (Table 1, FIG. 4). This indicates the integrative genomic mining approach is effective in identifying functional enzymes that perform the desired reaction on C8.
(§3) For the native KIVD and KIVD_VLV mutant, 2 ml overnight cultures of XL1B cells were transformed with pQE9 containing N-terminal his-tagged KIVD enzymes and grown in Terrific Broth (BP biomedical, Cat#3046-042) with 50 μg/mL of carbenicillin. (Fisher scientific, Cat# BP2648-5) For the GEOs, 2 ml overnight cultures of BLR cells were transformed with pet29b+ plasmid containing N-terminal his-tagged GEOs, and grown in Terrific Broth with 50 μg/mL of kanamycin. (Fisher scientific, Cat# BP906-5) These cultures were diluted 1:1000 in 500 mL of Terrific Broth with 1 mM MgSO4, 1% glucose, and 50ug/mL of corresponding antibiotics, then grown at 37° C. for 24 hours. Cultures were pelleted down at 4700 rpm for 10 mins and resuspended in auto-induction media (LB broth, 1 mM MgSO4, 0.1 mM TPP, 1×NPS, and 1×5052) for induction at 18° C. for 34 hours. At the end of induction, cells were centrifuged (4700 rpm, 4° C., 20 minutes), supernatant was removed, and cells were resuspended in 40 mL lysis buffer (100 mM Hepes pH 7.5, 100 mM NaCl, 10% glycerol, 0.1 mM TPP, 1 mM MgSO4, 10 mM Imidazole, 1 mM TCEP) and 1 mM PMSF) and sonicated for 2 minutes. Lysed cells were centrifuged at 4700 rpm at 4° C. for 60 mins to remove cell debris. Supernatant was loaded on gravity flow column with 700 μl of cobalt slurry (Fisher scientific, CAT# PI-90091) washed with 10 ml of wash buffer (100 mM Hepes pH 7.5, 100 mM NaCl, 10% glycerol, 0.1 mM TPP, 1 mM MgSO4, 10 mM Imidazole, and 1 mM TCEP). Cobalt bead bed was washed with 15 ml of wash buffer 5 times and proteins were eluted with 1000 μl of elution buffer (100 mM Hepes pH 7.5, 100 mM NaCl, 10% glycerol, 0.1 mM TPP, 1 mM MgSO4, 200 mM Imidazole, and 1 mM TCEP). Protein samples were immediately buffer exchanged with spin concentrators (Satorius, CAT# VS0112) into storage buffer (100 mM Hepes pH 7.5, 100 mM NaCl, 10% glycerol, 0.1 mM TPP, 1 mM MgSO4, and 1 mM TCEP) and stored at 4° C. until kinetics characterization. Protein concentrations were determined using a Synergy H1 spectrophotometer (Biotek) by measuring absorbance at 280 nm using their calculated extinction coefficients with ExPASy ProtParam Tool.^33 All other buffers and salts were purchased from Fisher Scientific unless otherwise specified.
(§4) The kcat and KM values of selective KIVD mutants were measured for the substrates: C3, C5, isoC5, and C8. All substrates were dissolved in MilliQ H2O and pH was adjusted to 7.5 as necessary. Activity was measured at 0.005 mM to 10 mM substrates. The assay was performed in a 96-well half-area plate. […]

[2] = substrate: CCCC(=O)C(=O)O; assay type: biochemical
Source text: as §1, §2, §3, §4

[3] = substrate: CCCCCCC(=O)C(=O)O; assay type: biochemical
Source text: as §1, §2, §3, §4

[4] = substrate: CC(C)C(=O)C(=O)O; assay type: biochemical
Source text: as §2
For the native KIVD and KIVD_VLV mutant, 2 ml overnight cultures of XL1B cells were transformed with pQE9 containing N-terminal his-tagged KIVD enzymes and grown in Terrific Broth (BP biomedical, Cat#3046-042) with 50 μg/mL of carbenicillin. […] Protein concentrations were determined using a Synergy H1 spectrophotometer (Biotek) by measuring absorbance at 280 nm using their calculated extinction coefficients with ExPASy ProtParam Tool.^33 All other buffers and salts were purchased from Fisher Scientific unless otherwise specified.
The kcat and KM values of selective KIVD mutants were measured for the substrates: C3, C5, isoC5, and C8. […] Activity was measured at 0.005 mM to 10 mM substrates. […] Absorbance readings were taken every 1-minute at OD340 at 21° C. for 60 minutes using the Synergy H1. […]

[5] = substrate: CC(C)C(=O)C(=O)O; assay type: biochemical, Lactococcus lactis
Procedure: as §3
(§5) The kcat and KM values of selective KIVD mutants were measured for the substrates: C3, C5, isoC5, and C8. All substrates were dissolved in MilliQ H2O and pH was adjusted to 7.5 as necessary. Activity was measured at 0.005 mM to 10 mM substrates. The assay was performed in a 96-well half-area plate. Each reaction contains a final concentration of 0.5 mM NADH, 1 mM DTT, 0.1 mM TPP, 1 mM MgSO4, reaction buffer (100 mM Hepes, 100 mM NaCl, 10% glycerol, pH 7.5) and ADH (Sigma Aldrich, A7011, 10 U/ml for C3, C5 and C8 reactions, 500 U/ml for isoC5 reactions). A wide range of ketoacid decarboxylase concentrations, 4.5 nM-15 μM, were used according to the activity of each enzyme toward different substrates in order to perform steady state kinetics measurement over a period of an hour. Absorbance readings were taken every 1-minute at OD340 at 21° C. for 60 minutes using the Synergy H1. Kinetic parameters (kcat and KM) were determined by fitting initial velocity versus substrate concentration data to the Michaelis-Menten equation.

[6] = substrate: CCCC(=O)C(=O)O; assay type: biochemical, Lactococcus lactis
Procedure: as §3, §5

[7] = substrate: CCCCCCC(=O)C(=O)O; assay type: biochemical, Lactococcus lactis
Procedure: as §3, §5

[8] = substrate: CC(C)C(=O)C(=O)O; assay type: biochemical; remark: listed apart in the source
Source text: as §1, §2, §3, §4

B1: 1ZPD, ketoacid decarboxylase, SEQ ID NO: 22 (Zymomonas mobilis subsp. mobilis ZM4 = ATCC 31821) (protein)
chain: MSYTVGTYLAERLVQIGLKHHFAVAGDYNLVLLDNLLLNKNMEQVYCCNELNCGFSAEGYARAKGAAAAVVTYSVGALSAFDAIGGAYAENLPVILISGAPNNNDHAAGHVLHHALGKTDYHYQLEMAKNITAAAEAIYTPEEAPAKIDHVIKTALREKKPVYLEIACNIASMPCAAPGPASALFNDEASDEASLNAAVDETLKFIANRDKVAVLVGSKLRAAGAEEAAVKFTDALGGAVATMAAAKSFFPEENALYIGTSWGEVSYPGVEKTMKEADAVIALAPVFNDYSTTGWTDIPDPKKLVLAEPRSVVVNGIRFPSVHLKDYLTRLAQKVSKKTGSLDFFKSLNAGELKKAAPADPSAPLVNAEIARQVEALLTPNTTVIAETGDSWFNAQRMKLPNGARVEYEMQWGHIGWSVPAAFGYAVGAPERRNILMVGDGSFQLTAQEVAQMVRLKLPVIIFLINNYGYTIEVMIHDGPYNNIKNWDYAGLMEVFNGNGGYDSGAAKGLKAKTGGELAEAIKVALANTDGPTLIECFIGREDCTEELVKWGKRVAAANSRKPVNKVVGSTENLYFQSGALE
What does the source list for B1?
Km [1]: 5.7 ± 0.3 mM; kcat [1]: 46.7 ± 1.4 s⁻¹; kcat/Km [1]: 8200 ± 545 M⁻¹ s⁻¹; Km [2]: 7.1 ± 0.3 mM; kcat [2]: 0.95 ± 0.02 s⁻¹; kcat/Km [2]: 140 ± 5.6 M⁻¹ s⁻¹; Km [3]: 1.2 ± 0.1 mM; kcat [3]: 0.021 ± 0.001 s⁻¹; kcat/Km [3]: 19 ± 2 M⁻¹ s⁻¹

B2: 1OZF, ketoacid decarboxylase (Klebsiella pneumoniae) (protein)
chain: MDKQYPVRQWAHGADLVVSQLEAQGVRQVFGIPGAKIDKVFDSLLDSSIRIIPVRHEANAAFMAAAVGRITGKAGVALVTSGPGCSNLITGMATANSEGDPVVALGGAVKRADKAKQVHQSMDTVAMFSPVTKYAIEVTAPDALAEVVSNAFRAAEQGRPGSAFVSLPQDVVDGPVSGKVLPASGAPQMGAAPDDAIDQVAKLIAQAKNPIFLLGLMASQPENSKALRRLLETSHIPVTSTYQAAGAVNQDNFSRFAGRVGLFNNQAGDRLLQLADLVICIGYSPVEYEPAMWNSGNATLVHIDVLPAYEERNYTPDVELVGDIAGTLNKLAQNIDHRLVLSPQAAEILRDRQHQRELLDRRGAQLNQFALHPLRIVRAMQDIVNSDVTLTVDMGSFHIWIARYLYTFRARQVMISNGQQTMGVALPWAIGAWLVNPERKVVSVSGDGGFLQSSMELETAVRLKANVLHLIWVDNGYNMVAIQEEKKYQRLSGVEFGPMDFKAYAESFGAKGFAVESAEALEPTLRAAMDVDGPAVVAIPVDYRDNPLLMGQLHLSQIL
B2 was tested. Which Km [4] did it give?
The Km was 1.8 ± 0.1 mM.

And the kcat [4]?
The kcat was 0.03 ± 0.001 s⁻¹.

B3: Native KIVD (ketoisovalerate decarboxylase), wild type, SEQ ID NO:1 (Lactococcus lactis subsp. lactis) (protein)
chain: MYTVGDYLLDRLHELGIEEIFGVPGDYNLQFLDQIISRKDMKWVGNANELNASYMADGYARTKKAAAFLTTFGVGELSAVNGLAGSYAENLPVVEIVGSPTSKVQNEGKFVHHTLADGDFKHFMKMHEPVTAARTLLTAENATVEIDRVLSALLKERKPVYINLPVDVAAAKAEKPSLPLKKENSTSNTSDQEILNKIQESLKNAKKPIVITGHEIISFGLEKTVSQFISKTKLPITTLNFGKSSVDEALPSFLGIYNGKLSEPNLKEFVESADFILMLGVKLTDSSTGAFTHHLNENKMISLNIDEGKIFNESIQNFDFESLISSLLDLSEIEYKGKYIDKKQEDFVPSNALLSQDRLWQAVENLTQSNETIVAEQGTSFFGASSIFLKPKSHFIGQPLWGSIGYTFPAALGSQIADKESRHLLFIGDGSLQLTVQELGLAIREKINPICFIINNDGYTVEREIHGPNQSYNDIPMWNYSKLPESFGATEERVVSKIVRTENEFVSVMKEAQADPNRMYWIELILAKEDAPKVLKKMGKLFAEQNKS
Which Km [5] does the source give for B3 here?
The Km was 4.5 ± 0.3 mM.

And the kcat [5]?
The kcat was 61 ± 2.1 s⁻¹.

What about the Km [6] of the same protein?
The Km was 1.5 ± 0.1 mM.

What about the kcat [6] of the same protein?
Its kcat is 14.3 ± 0.2 s⁻¹.

What about the Km [7] of the same protein?
The Km was 0.21 ± 0.04 mM.

And the kcat [7]?
The kcat was 7 ± 0.3 s⁻¹.

B4: 3FZN, ketoacid decarboxylase, SEQ ID NO: 20 (Pseudomonas putida) (protein)
chain: MASVHGTTYELLRRQGIDTVFGNPGSNELPFLKDFPEDFRYILALQEACVVGIADGYAQASRKPAFINLHSAAGTGNAMGALSNAWNSHSPLIVTAGQQTRAMIGVEALLTNVDAANLPRPLVKWSYEPASAAEVPHAMSRAIHMASMAPQGPVYLSVPYDDWDKDADPQSHHLFDRHVSSSVRLNDQDLDILVKALNSASNPAIVLGPDVDAANANADCVMLAERLKAPVWVAPSAPRCPFPTRHPCFRGLMPAGIAAISQLLEGHDVVLVIGAPVFRYHQYDPGQYLKPGTRLISVTCDPLEAARAPMGDAIVADIGAMASALANLVEESSRQLPTAAPEPAKVDQDAGRLHPETVFDTLNDMAPENAIYLNESTSTTAQMWQRLNMRNPGSYYFCAAGGLGFALPAAIGVQLAEPERQVIAVIGDGSANYSISALWTAAQYNIPTIFVIMNNGTYGALRWFAGVLEAENVPGLDVPGIDFRALAKGYGVQALKADNLEQLKGSLQEALSAKGPVLIEVSTVSPVKGSTENLYFQSGALE
B4 was tested. Which Km [8] did it give?
The Km was 4.9 ± 0.3 mM.

And the kcat [8]?
Its kcat is 0.52 ± 0.02 s⁻¹.

And the Km [2]?
Its Km is 2.7 ± 0.2 mM.

And the kcat [2]?
Its kcat is 4.7 ± 0.1 s⁻¹.

What about the Km [3] of the same protein?
Its Km is 3.8 ± 0.3 mM.

And the kcat [3]?
Its kcat is 1.3 ± 0.1 s⁻¹.

Reference: patent US10829756B2, “Discovery of enzymes from the alpha-keto acid decarboxylase family” (priority 2015, dated 2020)
